Experimental data published in patent publication USRE38313.

Key:
[1] = biological target: human MHC Class II molecules expressed on cells (human); test: competition by flow cytometry on Daudi cells; soluble CHO/LAG-3D1D2 first, then monomeric LAG-3D1D2Ig
[2] = biological target: human MHC Class II molecules expressed on cells (human); test: competition by flow cytometry on Daudi cells; soluble CHO/LAG-3D1D2 first, then dimeric LAG-3D1D4Ig
[3] = biological target: human MHC Class II molecules expressed on cells (human); test: flow cytometry on Daudi cells, GAH-FITC detection, no preincubation
[4] = biological target: human MHC Class II molecules expressed on cells (human); test: flow cytometry on Daudi cells preincubated with the competitor soluble CHO/LAG-3D1D2, GAH-FITC detection
[5] = biological target: human MHC Class II molecules expressed on cells (human); test: cell-based or functional assay

Substance	percent inhibition of the binding of monomeric LAG-3D1D2Ig [1] [%]	percent inhibition of the binding of dimeric LAG-3D1D4Ig [2] [%]	Mean Fluorescence [3]	Mean Fluorescence [4]	inhibition of the proliferation of clone T154 preincubated with cross-linked LAG-3Ig [5] [%]
soluble LAG-3 D1D2 fragment produced by CHO cells (receptor)	27	58	–	–	–
LAG-3 D1D2 Ig (from UniProt P01857 99-330) (Fc fusion)	–	–	62.5	–	–
LAG-3 D1-D4 Ig (from UniProt P01857 99-330) (Fc fusion)	–	–	20.8	8.5	> 50
